Key:
[1] = target: PARP1 (UniProt P09874); experiment: BLI, nucleosome immobilised, PARP1 titrated; details: reference: H2A.X nucleosome; sites S139
[2] = target: NUC167, nucleosome with a single double-helical turn linker DNA at both termini (H2A) (human); experiment: SPR; Biacore 3000, room temperature, 10 ul/min; nucleosome/NCP with biotinylated DNA (600-700 RU) immobilised on CM5 chips with neutravidin; 20 mM Tris pH 7.5, 150 mM NaCl; PARP1 1.15-18.5 nM or NPARP1 2.32-37 nM injected; kinetic titration, 1:1 fit
[3] = target: NUC155, nucleosome with a single double-helical turn linker DNA at one terminus (H2A) (human); experiment: as above
[4] = target: 145 bp nucleosome core particle (NCP) with H2A (human); experiment: as above
[5] = target: nucleosome with a single double-helical turn linker DNA at one terminus, assembled with H2A (NUC155) (human) (UniProt P06899); experiment: SPR; Biacore 3000, room temperature, 10 ul/min; nucleosome/NCP with biotinylated DNA (600-700 RU) immobilised on CM5 chips with neutravidin; PARP1 (1.15-18.5 nM) or NPARP1 (2.32-37 nM) injected consecutively (kinetic titration, 1:1 fit); 20 mM Tris pH 7.5, 150 mM NaCl
[6] = target: 145 bp nucleosome core particle assembled with H2A (NCP) (human) (UniProt P06899); experiment: as above
[7] = target: nucleosome with a single double-helical turn linker DNA at both termini, assembled with H2A (NUC167) (human) (UniProt P06899); experiment: as above
[8] = target: NUC167 with H2A.X in place of H2A (human) (UniProt P16104); experiment: BLI; Octet RED96e, 25 C; biotinylated nucleosome captured on streptavidin biosensors; PARP1 0.195-3.125 nM in PBST pH 7.4; association 120 s, dissociation 15 min; 1:1 model
[9] = target: NUC167, nucleosome with a single double-helical turn linker DNA at both termini (H2A) (human); experiment: as above
[10] = target: NUC167 with H2A.X-S139E (mutant mimic of γH2A.X) in place of H2A (human); experiment: as above
[11] = target: NUC167 with γH2A.X [H2A.X (pS139)] in place of H2A (human) (UniProt P16104); experiment: as above
[12] = target: NUC167 nucleosome assembled with H2A.X-S139E (mutant mimic of γH2A.X) in place of H2A (human) (UniProt P06899); experiment: BLI; Octet RED96e, 25 °C; biotinylated nucleosome captured on streptavidin biosensors; PARP1 0.195-3.125 nM in PBST pH 7.4 (150 mM NaCl, 0.05% Tween-20); association 120 s, dissociation 15 min; 1:1 model
[13] = target: NUC167 nucleosome assembled with γH2A.X [H2A.X (pS139)] in place of H2A (human) (UniProt P06899); experiment: as above
[14] = target: nucleosome with a single double-helical turn linker DNA at both termini, assembled with H2A (NUC167) (human) (UniProt P06899); experiment: as above
[15] = target: NUC167 nucleosome assembled with H2A.X in place of H2A (human) (UniProt P06899); experiment: as above

Row | Substance | koff [2] | kon [2] | Kd [3] | koff [3] | kon [3] | Kd [4] | koff [4] | kon [4] | Kd [5] | koff [5] | kon [5] | Kd [6] | koff [6] | kon [6] | koff [7] | kon [7] | KD [1] | further results
1 | H2A.X (from UniProt P16104) H2A.X-S139E nucleosome | – | – | – | – | – | – | – | – | – | – | – | – | – | – | – | – | stronger; reference 73.2 ± 0.3 | –
2 | H2A.X (from UniProt P16104) γH2A.X (pS139) nucleosome | – | – | – | – | – | – | – | – | – | – | – | – | – | – | – | – | stronger; reference 73.2 ± 0.3 | –
3 | NPARP1 (N-terminal half of PARP1, amino acids 1-486, lacking the WGR and catalytic domains) (from UniProt P09874 1-486) (domain or fragment) | – | – | – | – | – | – | – | – | 17.3 nM | 0.00107 s⁻¹ | 61900 M⁻¹ s⁻¹ | 187 nM | 0.00424 s⁻¹ | 22600 M⁻¹ s⁻¹ | 0.0244 s⁻¹ | 3e+06 M⁻¹ s⁻¹ | – | Kd [7]: 8.13 nM
4 | PARP1 (poly(ADP-ribose) polymerase 1) (from UniProt P09874 1-1014) (enzyme) | 0.000562 s⁻¹ | 2.28e+06 M⁻¹ s⁻¹ | 0.554 nM | 0.00107 s⁻¹ | 1.93e+06 M⁻¹ s⁻¹ | 0.701 nM | 0.000743 s⁻¹ | 1.06e+06 M⁻¹ s⁻¹ | – | – | – | – | – | – | – | – | – | koff [8]: 0.000274 s⁻¹; kon [8]: 3.75e+06 M⁻¹ s⁻¹; koff [9]: 0.000158 s⁻¹; kon [9]: 825000 M⁻¹ s⁻¹; koff [10]: 0.000328 s⁻¹; kon [10]: 7.5e+06 M⁻¹ s⁻¹; koff [11]: 0.000116 s⁻¹; kon [11]: 2.43e+06 M⁻¹ s⁻¹

The next lines start with results.

Row | koff [2] | kon [2] | Kd [3] | koff [3] | kon [3] | Kd [4] | koff [4] | kon [4] | Kd [5] | koff [5] | kon [5] | Kd [6] | koff [6] | kon [6] | koff [7] | kon [7] | Substance | KD [1] | further results
5 | 0.0244 s⁻¹ | 3e+06 M⁻¹ s⁻¹ | 17.3 nM | 0.00107 s⁻¹ | 61900 M⁻¹ s⁻¹ | 187 nM | 0.00424 s⁻¹ | 22600 M⁻¹ s⁻¹ | – | – | – | – | – | – | – | – | NPARP1 (N-terminal half of PARP1, amino acids 1-486) (from UniProt P09874 1-486) (domain or fragment) | – | Kd [2]: 8.13 nM
6 | – | – | – | – | – | – | – | – | 0.554 nM | 0.00107 s⁻¹ | 1.93e+06 M⁻¹ s⁻¹ | 0.701 nM | 0.000743 s⁻¹ | 1.06e+06 M⁻¹ s⁻¹ | 0.000562 s⁻¹ | 2.28e+06 M⁻¹ s⁻¹ | poly(ADP-ribose) polymerase 1 (PARP1), full-length (from UniProt P09874 1-1014) (enzyme) | – | koff [12]: 0.000328 s⁻¹; kon [12]: 7.5e+06 M⁻¹ s⁻¹; koff [13]: 0.000116 s⁻¹; kon [13]: 2.43e+06 M⁻¹ s⁻¹; koff [14]: 0.000158 s⁻¹; kon [14]: 825000 M⁻¹ s⁻¹; koff [15]: 0.000274 s⁻¹; kon [15]: 3.75e+06 M⁻¹ s⁻¹
